{
  "source": "patent US20170101470A1",
  "about": "(PROTHENA BIOSCIENCES, published 2017)",
  "binders": {"B1": {"name": "rat anti-human MCAM monoclonal antibody clone 2120.4.19 (antibody, V domains shown)", "VH": "QVQLKESGPGLVQPSQTLSLTCTVSGFSLTSNGVSWVRQPPGKGLEWIAAISSGGTTYYNSAFKSRLSISRNTSKSQVLLKMNSLQTEDTAMYFCARRYGYGWYFDFWGPGTMVTVSS", "VL": "DIRMTQSPSLLSASVGDRVTLNCKASQNIYNSLAWYQQKLGEGPKVLIPNANSLQTGIPSRFSGSGSGTDFTLTISSLQPEDFATYFCQQFYSGYTFGAGTKLELK", "notes": "also called m2120"}},
  "assay_in_all_cases": "shotgun mutagenesis, immunodetection on BHK-S cells, 0.25 ug/mL, background-subtracted and normalised to WT, triplicate",
  "key": {"[1]": {"biological_target": "T1, human MCAM I207A mutant clone on BHK-S cells (human) (UniProt P43121)", "T1 sequence": "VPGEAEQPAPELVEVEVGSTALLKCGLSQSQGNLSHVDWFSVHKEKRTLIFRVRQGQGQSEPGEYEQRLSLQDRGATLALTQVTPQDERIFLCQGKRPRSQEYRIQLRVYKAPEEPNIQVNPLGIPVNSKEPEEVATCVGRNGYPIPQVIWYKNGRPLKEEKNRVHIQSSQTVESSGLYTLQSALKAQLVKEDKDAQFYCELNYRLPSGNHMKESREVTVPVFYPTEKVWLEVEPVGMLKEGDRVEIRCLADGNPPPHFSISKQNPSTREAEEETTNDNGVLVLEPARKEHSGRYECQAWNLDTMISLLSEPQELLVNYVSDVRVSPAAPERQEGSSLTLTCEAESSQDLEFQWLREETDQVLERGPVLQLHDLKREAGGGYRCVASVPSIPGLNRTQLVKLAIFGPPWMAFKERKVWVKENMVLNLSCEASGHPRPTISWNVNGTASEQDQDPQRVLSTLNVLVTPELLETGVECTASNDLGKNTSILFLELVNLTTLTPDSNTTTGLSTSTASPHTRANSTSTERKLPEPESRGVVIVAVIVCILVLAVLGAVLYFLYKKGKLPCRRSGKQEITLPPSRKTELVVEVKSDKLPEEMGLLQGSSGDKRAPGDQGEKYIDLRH"}, "[2]": {"biological_target": "T2, human MCAM L225A mutant clone on BHK-S cells (human) (UniProt P43121)", "T2 sequence": "T1 sequence with A184I, L202A"}, "[3]": {"biological_target": "T3, human MCAM P145A mutant clone on BHK-S cells (human) (UniProt P43121)", "T3 sequence": "T1 sequence with P122A, A184I"}, "[4]": {"biological_target": "T4, human MCAM V241A mutant clone on BHK-S cells (human) (UniProt P43121)", "T4 sequence": "T1 sequence with A184I, V218A"}},
  "note": "Numbering of substitutions follows the chain as printed.",
  "data": [
    {"binder": "B1", "values": [
      {"measurement": "mean reactivity (% of wild type MCAM)", "setting": "[1]", "result": 23.6, "unit": "% WT"},
      {"measurement": "mean reactivity (% of wild type MCAM)", "setting": "[2]", "result": 23.8, "unit": "% WT"},
      {"measurement": "mean reactivity (% of wild type MCAM)", "setting": "[3]", "result": 26.3, "unit": "% WT"},
      {"measurement": "mean reactivity (% of wild type MCAM)", "setting": "[4]", "result": 24.4, "unit": "% WT"}
    ]}
  ]
}
